Assays:
[1] = target: T1, cynomolgus monkey FcγRIIa1 extracellular domain, His-tagged (cynomolgus monkey); assay: SPR (BIACORE), captured antibody, FcgR as analyte
T1 construct: also called cyno FcγRIIa1; cynoFcgRIIa1; not shown: C-terminal His-tag
T1 chain: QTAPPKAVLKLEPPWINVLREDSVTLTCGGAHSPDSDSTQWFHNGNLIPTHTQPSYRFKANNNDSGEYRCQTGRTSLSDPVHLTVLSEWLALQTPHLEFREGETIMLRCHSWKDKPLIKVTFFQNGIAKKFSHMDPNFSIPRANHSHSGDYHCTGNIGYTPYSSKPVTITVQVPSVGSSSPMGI
Procedure: (§1) The kinetic analysis of interactions between these antibodies and FcγR was carried out using BIACORE® T200 or BIACORE® 4000 (GE Healthcare). HBS-EP+ (GE Healthcare) was used as the running buffer, and the measurement temperature was set to 25° C. A chip produced by immobilizing Protein A. Protein A/G or mouse anti-human IgG kappa light chain (BD Biosciences) onto a Series S Sensor Chip CM4 or CM5 (GE Healthcare) by the amine-coupling method was used. […] After the measurement, the antibody captured on the chip was washed off by allowing reaction with 10 mM glycine-HCl, pH1.5 and 25 mM NaOH so that the chip was regenerated and used repeatedly. The sensorgrams obtained as measurement results were analyzed by the 1:1 Langmuir binding model using the BIACORE® Evaluation Software to calculate the binding rate constant ka (L/mol/s) and dissociation rate constant kd (l/s), and the dissociation constant KD (mol/L) was calculated from these values. […] Regarding such interactions, KD values were calculated using the following 1:1 binding model described in BIACORE® T100 Software Handbook BR1006-48 Edition AE.

[2] = target: T2, cynomolgus monkey FcγRIIa2 extracellular domain, His-tagged (cynomolgus monkey); assay: SPR (BIACORE), captured antibody, FcgR as analyte
T2 construct: also called cyno FcγRIIa2; cynoFcgRIIa2; not shown: C-terminal His-tag
T2 chain: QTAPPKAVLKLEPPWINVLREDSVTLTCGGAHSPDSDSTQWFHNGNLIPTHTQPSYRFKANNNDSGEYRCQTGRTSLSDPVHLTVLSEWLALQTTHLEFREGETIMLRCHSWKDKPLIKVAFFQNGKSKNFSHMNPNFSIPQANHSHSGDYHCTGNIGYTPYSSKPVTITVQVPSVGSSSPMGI
Procedure: as §1

[3] = target: T3, cynomolgus monkey FcγRIIa3 extracellular domain, His-tagged (cynomolgus monkey); assay: SPR (BIACORE), captured antibody, FcgR as analyte
T3 construct: also called cyno FcγRIIa3; cynoFcgRIIa3; not shown: C-terminal His-tag
T3 chain: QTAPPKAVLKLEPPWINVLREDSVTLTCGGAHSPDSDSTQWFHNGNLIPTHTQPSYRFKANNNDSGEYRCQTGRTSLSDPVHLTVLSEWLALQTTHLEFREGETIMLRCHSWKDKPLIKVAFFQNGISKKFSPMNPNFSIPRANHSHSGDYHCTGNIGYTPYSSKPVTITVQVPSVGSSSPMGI
Procedure: as §1

[4] = target: T4, cynomolgus monkey FcγRIIb extracellular domain, His-tagged (cynomolgus monkey); assay: SPR (BIACORE), captured antibody, FcgR as analyte
T4 construct: also called cyno FcγRIIb; cynoFcγRIIb; not shown: C-terminal His-tag
T4 chain: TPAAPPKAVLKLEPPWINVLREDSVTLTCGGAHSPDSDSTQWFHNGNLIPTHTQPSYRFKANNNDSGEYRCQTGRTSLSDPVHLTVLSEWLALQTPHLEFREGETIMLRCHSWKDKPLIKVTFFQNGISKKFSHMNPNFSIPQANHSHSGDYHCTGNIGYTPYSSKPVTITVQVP
Procedure: as §1

[5] = target: T5, cynomolgus monkey FcγRIIIaS extracellular domain, His-tagged (cynomolgus monkey, UniProt Q8SPW2 21-206 at identity 1.00)); assay: SPR (BIACORE), captured antibody, FcgR as analyte
T5 construct: also called cyno FcγRIIIaS; cynoFcγRIIIaS; not shown: C-terminal His-tag
T5 chain: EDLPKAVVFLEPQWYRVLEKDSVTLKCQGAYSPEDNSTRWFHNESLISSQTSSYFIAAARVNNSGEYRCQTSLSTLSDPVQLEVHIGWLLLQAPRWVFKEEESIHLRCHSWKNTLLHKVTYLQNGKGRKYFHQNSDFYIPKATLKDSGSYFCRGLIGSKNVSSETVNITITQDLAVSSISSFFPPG
Procedure: as §1

[6] = target: T6, human FcγRIIaH extracellular domain, His-tagged (human, UniProt P12318 34-217); assay: SPR (BIACORE), captured antibody, FcgR as analyte
T6 construct: also called human FcγRIIa (type H); FcgRIIaH; not shown: C-terminal His-tag
T6 sequence: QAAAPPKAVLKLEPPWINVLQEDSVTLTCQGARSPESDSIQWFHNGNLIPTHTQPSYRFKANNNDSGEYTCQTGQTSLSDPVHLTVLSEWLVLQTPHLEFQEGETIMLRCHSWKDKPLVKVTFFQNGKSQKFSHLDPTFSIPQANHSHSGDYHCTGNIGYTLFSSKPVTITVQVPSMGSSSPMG
Procedure: as §1

[7] = target: T7, human FcγRIIaR extracellular domain, His-tagged (human, UniProt P12318 34-217); assay: SPR (BIACORE), captured antibody, FcgR as analyte
T7 construct: also called human FcγRIIa (type R); FcgRIIaR; not shown: C-terminal His-tag
T7 chain: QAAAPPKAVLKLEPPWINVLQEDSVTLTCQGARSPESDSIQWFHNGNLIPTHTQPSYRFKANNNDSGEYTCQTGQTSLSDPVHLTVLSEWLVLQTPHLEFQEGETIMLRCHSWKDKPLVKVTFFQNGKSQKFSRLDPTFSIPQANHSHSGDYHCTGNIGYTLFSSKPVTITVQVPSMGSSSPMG
Procedure: as §1

[8] = target: T8, human FcγRIIIaV extracellular domain, His-tagged (human, UniProt P08637 17-208); assay: SPR (BIACORE), captured antibody, FcgR as analyte
T8 construct: also called FcgRIIIaV; not shown: C-terminal His-tag
Procedure: as §1

[9] = target: T5, cynomolgus monkey FcγRIIIaS …; assay: SPR (BIACORE); KD of SG1 divided by KD of variant

T8 sequence (P08637 17-208 F176V): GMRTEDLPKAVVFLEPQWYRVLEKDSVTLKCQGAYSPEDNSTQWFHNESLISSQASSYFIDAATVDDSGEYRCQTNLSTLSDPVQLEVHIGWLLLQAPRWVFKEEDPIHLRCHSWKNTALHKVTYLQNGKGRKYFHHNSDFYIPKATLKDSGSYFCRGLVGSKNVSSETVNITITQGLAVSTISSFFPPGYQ

Binder	Kd [1] [nM]	Kd [2] [nM]	Kd [3] [nM]	Kd [4] [nM]	Kd [5] [nM]	Kd [6] [nM]	Kd [7] [nM]	Kd [8] [nM]	KD fold (SG1 = 1) [9] [fold]
MS_M103205H795-SG1/M103202L889-SK1 (antibody, human IgG1, kappa, Parent antibody with heavy chain constant region SG1; also called MS1032LO06-SG1; copies: 2 + 2) heavy: not shown light: DIVMTQSPATLSLSPGERATLSCTSSQSVYHANWLSWFQQKPGQPPKLLIYWASTLAYGVPSRFSGSGSGTDFTLTISSLQPEDAATYYCAGGYGGGRYAFGQGTKVEIKRTVAAPSVFIFPPSDEQLKSGTASVVCLLNNFYPREAKVQWKVDNALQSGNSQESVTEQDSKDSTYSLSSTLTLSKADYEKHKVYACEVTHQGLSSPVTKSFNRGEC	3200	5100	17000	1800	360	690	1100	810	1
M103205H795-MY265/M103202L889-SK1 (antibody, human IgG1, kappa, also called MS103205H795-MY265; copies: 2 + 2) heavy: QVTLKESGPVLVKPTETLTLTCTVSGIDLSHDDISWVRQAPGKGLEWVGIISYAGSTYYASWAKGRLTISKDTSKNQVVLTMTNMDPVDTATYYCARGVPAYSHGGDLWGQGTLVTVSSASTKGPSVFPLAPSSKSTSGGTAALGCLVKDYFPEPVTVSWNSGALTSGVHTFPAVLQSSGLYSLSSVVTVPSSSLGTQTYICNVNHKPSNTKVDKKVEPKSCDKTHTCPPCPAPELLTGPSVFLFPPKPKDTLMISRTPEVTCVVVDVSDEDPEVKFNWYVDGVEVHNAKTKPREEQYNSTYRVVSVLTVLHQDWLNGKEYKCKVSNKALPKPIEKTISKAKGQPREPQVYTLPPSREEMTKNQVSLTCLVKGFYPSDIAVEWESNGQPENNYKTTPPVLDSDGSFFLYSKLTVDKSRWQQGNVFSCSVMHEALHNHYTQKSLSLSP light: DIVMTQSPATLSLSPGERATLSCTSSQSVYHANWLSWFQQKPGQPPKLLIYWASTLAYGVPSRFSGSGSGTDFTLTISSLQPEDAATYYCAGGYGGGRYAFGQGTKVEIKRTVAAPSVFIFPPSDEQLKSGTASVVCLLNNFYPREAKVQWKVDNALQSGNSQESVTEQDSKDSTYSLSSTLTLSKADYEKHKVYACEVTHQGLSSPVTKSFNRGEC	2200	1900	4800	590	2000	210	440	54000	0.2
M103205H795-MY441/M103202L889-SK1 (antibody, human IgG1, kappa, copies: 2 + 2) heavy: QVTLKESGPVLVKPTETLTLTCTVSGIDLSHDDISWVRQAPGKGLEWVGIISYAGSTYYASWAKGRLTISKDTSKNQVVLTMTNMDPVDTATYYCARGVPAYSHGGDLWGQGTLVTVSSASTKGPSVFPLAPSSKSTSGGTAALGCLVKDYFPEPVTVSWNSGALTSGVHTFPAVLQSSGLYSLSSVVTVPSSSLGTQTYICNVNHKPSNTKVDKKVEPKSCDKTHTCPPCPAAELLTGPSVFLFPPKPKDTLMISRTPEVTCVVVDVSDEDPEVKFNWYVDGVEVHNAKTKPREEQYNSTYRVVSVLTVLHQDWLNGKEYKCKVSNKALPKPIEKTISKAKGQPREPQVYTLPPSREEMTKNQVSLTCLVKGFYPSDIAVEWESNGQPENNYKTTPPVLDSDGSFFLYSKLTVDKSRWQQGNVFSCSVMHEALHNHYTQKSLSLSP light: DIVMTQSPATLSLSPGERATLSCTSSQSVYHANWLSWFQQKPGQPPKLLIYWASTLAYGVPSRFSGSGSGTDFTLTISSLQPEDAATYYCAGGYGGGRYAFGQGTKVEIKRTVAAPSVFIFPPSDEQLKSGTASVVCLLNNFYPREAKVQWKVDNALQSGNSQESVTEQDSKDSTYSLSSTLTLSKADYEKHKVYACEVTHQGLSSPVTKSFNRGEC	3800	3300	8000	880	2600	360	650	8100	0.1
M103205H795-MY442/M103202L889-SK1 (antibody, human IgG1, kappa, copies: 2 + 2) heavy: QVTLKESGPVLVKPTETLTLTCTVSGIDLSHDDISWVRQAPGKGLEWVGIISYAGSTYYASWAKGRLTISKDTSKNQVVLTMTNMDPVDTATYYCARGVPAYSHGGDLWGQGTLVTVSSASTKGPSVFPLAPSSKSTSGGTAALGCLVKDYFPEPVTVSWNSGALTSGVHTFPAVLQSSGLYSLSSVVTVPSSSLGTQTYICNVNHKPSNTKVDKKVEPKSCDKTHTCPPCPADELLTGPSVFLFPPKPKDTLMISRTPEVTCVVVDVSDEDPEVKFNWYVDGVEVHNAKTKPREEQYNSTYRVVSVLTVLHQDWLNGKEYKCKVSNKALPKPIEKTISKAKGQPREPQVYTLPPSREEMTKNQVSLTCLVKGFYPSDIAVEWESNGQPENNYKTTPPVLDSDGSFFLYSKLTVDKSRWQQGNVFSCSVMHEALHNHYTQKSLSLSP light: DIVMTQSPATLSLSPGERATLSCTSSQSVYHANWLSWFQQKPGQPPKLLIYWASTLAYGVPSRFSGSGSGTDFTLTISSLQPEDAATYYCAGGYGGGRYAFGQGTKVEIKRTVAAPSVFIFPPSDEQLKSGTASVVCLLNNFYPREAKVQWKVDNALQSGNSQESVTEQDSKDSTYSLSSTLTLSKADYEKHKVYACEVTHQGLSSPVTKSFNRGEC	4400	4200	6800	1100	2100	460	420	4700	0.2
M103205H795-MY443/M103202L889-SK1 (antibody, human IgG1, kappa, copies: 2 + 2) heavy: QVTLKESGPVLVKPTETLTLTCTVSGIDLSHDDISWVRQAPGKGLEWVGIISYAGSTYYASWAKGRLTISKDTSKNQVVLTMTNMDPVDTATYYCARGVPAYSHGGDLWGQGTLVTVSSASTKGPSVFPLAPSSKSTSGGTAALGCLVKDYFPEPVTVSWNSGALTSGVHTFPAVLQSSGLYSLSSVVTVPSSSLGTQTYICNVNHKPSNTKVDKKVEPKSCDKTHTCPPCPAEELLTGPSVFLFPPKPKDTLMISRTPEVTCVVVDVSDEDPEVKFNWYVDGVEVHNAKTKPREEQYNSTYRVVSVLTVLHQDWLNGKEYKCKVSNKALPKPIEKTISKAKGQPREPQVYTLPPSREEMTKNQVSLTCLVKGFYPSDIAVEWESNGQPENNYKTTPPVLDSDGSFFLYSKLTVDKSRWQQGNVFSCSVMHEALHNHYTQKSLSLSP light: DIVMTQSPATLSLSPGERATLSCTSSQSVYHANWLSWFQQKPGQPPKLLIYWASTLAYGVPSRFSGSGSGTDFTLTISSLQPEDAATYYCAGGYGGGRYAFGQGTKVEIKRTVAAPSVFIFPPSDEQLKSGTASVVCLLNNFYPREAKVQWKVDNALQSGNSQESVTEQDSKDSTYSLSSTLTLSKADYEKHKVYACEVTHQGLSSPVTKSFNRGEC	4800	5000	8800	1200	2600	530	640	5900	0.1

From US20200317768A1 (published 2020)
